US20240376214A1, “ANTI-C-MET ANTIBODIES AND ANTIBODY-DRUG CONJUGATES” (BYONDIS B.V., priority 2021, published 2024)

Columns and labels:
[1] = target: T1, human c-Met (HGFR), full length, on the cell surface (human, UniProt P08581 25-1390); test: flow cytometry, PC-3 cells; EC50 with 50 ng/mL HGF against EC50 without HGF
T1 construct: Endogenous c-Met on human tumor cell lines MKN45, NCI-H596, PC-3 and HepG2; also called hepatocyte growth factor receptor; mesenchymal-epithelial transition factor
Protocol: (§1) Cellular binding of the in total 75 humanized anti-c-Met antibodies (originating from the three selected chimeric antibodies) was studied in human c-Met-positive tumor cell lines MKN45, NCI-H596 and PC-3, rhesus c-Met-positive tumor cell line 4 MBr-5, and human c-Met-negative tumor cell line MDA-MB-175-VII. Cells were used around 90% of confluence at the time of an assay, detached with Trypsin-Versene (EDTA) (Lonza) for 5-10 minutes, washed and adjusted to a concentration of 1×10⁶ cells/mL in ice-cold FACS buffer (PBS 1×, 0.1% v/w BSA, 0.02% v/v sodium azide (NaN₃)). Staining was performed in 96-well round-bottomed microtiter plates using ice-cold reagents/solutions at 4° C. to prevent the modulation and internalization of surface antigens. 100,000 cells/well were added to 96-well plates (100 μL/well) and centrifuged at 300×g for 3 minutes. In case of pre-incubation with HGF, the cells were resuspended in 50 ng/mL recombinant human HGF in FACS buffer (50 μL/well) and incubated for 30 minutes at 4° C., followed by two wash steps with 150 μL FACS buffer. Supernatant was discarded and cells were stained for 30 minutes with 50 μL of each antibody. Serial dilutions were made in ice-cold FACS buffer. Cells were washed twice by centrifugation at 300×g for 3 minutes and resuspended in 50 μL 6000-times diluted secondary F(ab′)₂ goat anti-human IgG (Fc fragment specific) antibody APC-conjugated (Jackson ImmunoResearch). Following a 30-minute incubation on ice, cells were washed again 2 times and resuspended in 150 μL ice-cold FACS buffer for FACS analysis. For analysis of the data, the Median Fluorescence Intensity (MFI) values were obtained.

[2] = target: T2, rhesus c-Met on 4MBr-5 cells (rhesus, UniProt F7H1K4 25-1381, Natural c-Met is cleaved at the furin site (KRKKR/S) into disulphide-linked alpha and beta subunits; given here as one mature polypeptide.); test: flow cytometry, 4MBr-5 cells pre-incubated with 50 ng/mL HGF
T2 construct: also called rhesus c-Met antigen
Protocol: as §1

[3] = target: T2, rhesus c-Met on 4MBr-5 cells; test: flow cytometry, 4MBr-5 cells, without HGF
Protocol: as §1

[4] = target: T1, human c-Met (HGFR), full length, on the …; test: cell binding on c-Met positive MKN45 cells, fluorescence readout RFU (R-PE), mean ± S.E.M. of two experiments in duplicate
[5] = target: T1, human c-Met (HGFR), full length, on the …; test: flow cytometry, NCI-H596 cells; EC50 with 50 ng/mL HGF against EC50 without HGF
Protocol: as §1

[6] = target: T1, human c-Met (HGFR), full length, on the …; test: flow cytometry, PC-3 cells, without HGF
Protocol: as §1

[7] = target: T2, rhesus c-Met on 4MBr-5 cells; test: flow cytometry, 4MBr-5 cells; EC50 with 50 ng/mL HGF against EC50 without HGF
Protocol: as §1

[8] = target: T1, human c-Met (HGFR), full length, on the …; test: flow cytometry, NCI-H596 cells pre-incubated with 50 ng/mL HGF
Protocol: as §1

[9] = target: T1, human c-Met (HGFR), full length, on the …; test: flow cytometry, PC-3 cells pre-incubated with 50 ng/mL HGF
Protocol: as §1

[10] = target: T1, human c-Met (HGFR), full length, on the …; test: flow cytometry, MKN45 cells, without HGF
Protocol: as §1

[11] = target: T1, human c-Met (HGFR), full length, on the …; test: flow cytometry, NCI-H596 cells, without HGF
Protocol: as §1

[12] = target: T3, biotinylated human c-Met extracellular domain (human, UniProt P08581 25-932, biotinylated (site not stated)); test: SPR (Biacore T200, 37 C), biotinylated c-Met captured on CAP chip, mAb3b as analyte, 1:1 Langmuir fit; KD-obs
T3 construct: also called Human c-Met ECD
Protocol: (§2) Binding analysis was performed on a Surface Plasmon Resonance instrument (Biacore© T200 system, GE Life Sciences) at 37° C. Biotinylated human or cyno c-Met was captured on the surface of a CAPchip made suitable for capture of biotinylated molecules (Sensor Chip CAP, GE Life Sciences) by injection of Biotin Capture reagent for 300 seconds at 2 μL/min on flow cell 1 and 2. A dilution of the biotinylated c-Met antigen in running buffer (10 mM HEPES buffer at 25° C., pH 7.4 with 150 mM NaCl, 3 mM EDTA and 0.005% v/v polyoxyethylene (20) sorbitan monolaurate (Surfactant P20) was injected at variable contact times to obtain different capture levels at 5 μL/min. The dilution and contact time for c-Met variant was estimated with the aim for a capture level around 20 RU. After a one-minute baseline, the mAb3b sample was injected in five increasing concentrations (0.037, 0.11, 0.33, 1 and 3 nM) at […] for 60 seconds with a 900-second dissociation time. The Rₘₐₓ for the interactions was between 5-10 RU. Regeneration was performed with 6 M guanidine-HCl, 0.25 M NaOH solution (120 seconds with flow rate of […]). […] The sensorgrams were fitted to a 1:1 Langmuir binding model and subsequently evaluated for the goodness of the fit (chi2), the uniqueness of the fit (U-value) and by visual inspection and biological relevance.

[13] = target: T4, biotinylated cynomolgus c-Met extracellular domain (cynomolgus, UniProt A0M8R7 25-932 (Papio anubis entry), biotinylated (site not stated)); test: as above
T4 construct: also called Cyno c-Met ECD
Protocol: as §2

[14] = system: c-Met-positive tumor cell lines MKN45, NCI-H441 and PC-3; test: Internalization by flow cytometry (AF488 quenching); type: cell-based, human
Protocol: Internalization of mAb3b was studied in human c-Met-positive tumor cell lines MKN45, NCI-H441 and PC-3. Cells (100,000 cells/well of a 96-well round bottomed microtiter plate) were incubated for 30 minutes at 4° C. with 50 μL 10 μg/mL mAb3b or appropriate non-binding control antibody. After a wash step with ice-cold complete growth medium (CGM) consisting of RPMI (Lonza) supplemented with 10% heat inactivated (HI) fetal bovine serum (FBS) (Gibco) and 80 U/mL penicillin/streptomycin (Lonza), the cells were incubated for 30 minutes at 4° C. with 50 μL Alexa Fluor 488 (AF488)-labeled Fab Fragment goat anti-human IgG (1:600 dilution) (Jackson Immunoresearch). After a wash step with ice-cold CGM, cells were resuspended in 150 μL pre-warmed CGM and transferred to polypropylene tubes, one for each time point (0 h, 0.5 h, 1 h, 3 h, 24 h) and placed into a 37° C. water bath to initiate internalization. […] Identical unquenched tubes were determined for the total fluorescence at each time point. Fluorescence intensities were determined by flow cytometry (BD FACSVerse, Franklin Lakes, NJ) and indicated as the Median Fluorescence Intensity (MFI). Internalization was quantified by calculating the percentage of internalization with the formula described. […]

T2 sequence (F7H1K4 entry or part of it limits assumed): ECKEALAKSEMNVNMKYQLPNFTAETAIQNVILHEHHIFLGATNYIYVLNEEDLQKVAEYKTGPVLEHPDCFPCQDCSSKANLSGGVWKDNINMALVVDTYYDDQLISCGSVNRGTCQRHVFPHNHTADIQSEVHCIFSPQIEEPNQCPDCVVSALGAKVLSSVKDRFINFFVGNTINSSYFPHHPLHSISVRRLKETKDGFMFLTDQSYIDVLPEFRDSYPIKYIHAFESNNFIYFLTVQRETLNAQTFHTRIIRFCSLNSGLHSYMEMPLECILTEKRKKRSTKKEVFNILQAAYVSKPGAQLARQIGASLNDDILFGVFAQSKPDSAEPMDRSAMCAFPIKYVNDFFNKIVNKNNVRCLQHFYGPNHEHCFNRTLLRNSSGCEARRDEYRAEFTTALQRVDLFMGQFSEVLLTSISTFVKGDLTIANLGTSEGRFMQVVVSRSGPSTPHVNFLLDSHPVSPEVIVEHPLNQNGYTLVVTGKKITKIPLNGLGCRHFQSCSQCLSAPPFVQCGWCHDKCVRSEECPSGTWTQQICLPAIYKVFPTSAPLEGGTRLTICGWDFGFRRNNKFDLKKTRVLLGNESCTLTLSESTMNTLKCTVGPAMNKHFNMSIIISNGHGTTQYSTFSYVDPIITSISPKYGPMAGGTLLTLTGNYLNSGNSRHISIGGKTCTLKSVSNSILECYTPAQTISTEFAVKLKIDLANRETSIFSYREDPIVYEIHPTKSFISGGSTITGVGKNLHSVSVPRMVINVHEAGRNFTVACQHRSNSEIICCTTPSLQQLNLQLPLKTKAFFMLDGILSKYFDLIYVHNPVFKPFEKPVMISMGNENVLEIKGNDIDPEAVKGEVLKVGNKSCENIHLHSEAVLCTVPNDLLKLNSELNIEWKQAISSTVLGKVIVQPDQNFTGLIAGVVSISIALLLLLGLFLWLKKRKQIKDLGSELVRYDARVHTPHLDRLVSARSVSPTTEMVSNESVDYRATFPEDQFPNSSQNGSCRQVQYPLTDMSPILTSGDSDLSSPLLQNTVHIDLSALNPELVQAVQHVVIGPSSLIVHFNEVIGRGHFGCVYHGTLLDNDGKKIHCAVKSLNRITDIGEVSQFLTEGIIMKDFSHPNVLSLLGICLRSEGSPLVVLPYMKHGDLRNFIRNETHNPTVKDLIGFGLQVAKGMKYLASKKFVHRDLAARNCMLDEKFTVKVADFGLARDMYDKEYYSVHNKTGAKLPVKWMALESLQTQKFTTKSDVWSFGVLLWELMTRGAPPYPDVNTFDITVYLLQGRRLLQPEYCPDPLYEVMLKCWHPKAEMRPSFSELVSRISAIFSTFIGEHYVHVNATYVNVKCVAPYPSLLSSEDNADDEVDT
T1 sequence (P08581 25-1390 limits assumed): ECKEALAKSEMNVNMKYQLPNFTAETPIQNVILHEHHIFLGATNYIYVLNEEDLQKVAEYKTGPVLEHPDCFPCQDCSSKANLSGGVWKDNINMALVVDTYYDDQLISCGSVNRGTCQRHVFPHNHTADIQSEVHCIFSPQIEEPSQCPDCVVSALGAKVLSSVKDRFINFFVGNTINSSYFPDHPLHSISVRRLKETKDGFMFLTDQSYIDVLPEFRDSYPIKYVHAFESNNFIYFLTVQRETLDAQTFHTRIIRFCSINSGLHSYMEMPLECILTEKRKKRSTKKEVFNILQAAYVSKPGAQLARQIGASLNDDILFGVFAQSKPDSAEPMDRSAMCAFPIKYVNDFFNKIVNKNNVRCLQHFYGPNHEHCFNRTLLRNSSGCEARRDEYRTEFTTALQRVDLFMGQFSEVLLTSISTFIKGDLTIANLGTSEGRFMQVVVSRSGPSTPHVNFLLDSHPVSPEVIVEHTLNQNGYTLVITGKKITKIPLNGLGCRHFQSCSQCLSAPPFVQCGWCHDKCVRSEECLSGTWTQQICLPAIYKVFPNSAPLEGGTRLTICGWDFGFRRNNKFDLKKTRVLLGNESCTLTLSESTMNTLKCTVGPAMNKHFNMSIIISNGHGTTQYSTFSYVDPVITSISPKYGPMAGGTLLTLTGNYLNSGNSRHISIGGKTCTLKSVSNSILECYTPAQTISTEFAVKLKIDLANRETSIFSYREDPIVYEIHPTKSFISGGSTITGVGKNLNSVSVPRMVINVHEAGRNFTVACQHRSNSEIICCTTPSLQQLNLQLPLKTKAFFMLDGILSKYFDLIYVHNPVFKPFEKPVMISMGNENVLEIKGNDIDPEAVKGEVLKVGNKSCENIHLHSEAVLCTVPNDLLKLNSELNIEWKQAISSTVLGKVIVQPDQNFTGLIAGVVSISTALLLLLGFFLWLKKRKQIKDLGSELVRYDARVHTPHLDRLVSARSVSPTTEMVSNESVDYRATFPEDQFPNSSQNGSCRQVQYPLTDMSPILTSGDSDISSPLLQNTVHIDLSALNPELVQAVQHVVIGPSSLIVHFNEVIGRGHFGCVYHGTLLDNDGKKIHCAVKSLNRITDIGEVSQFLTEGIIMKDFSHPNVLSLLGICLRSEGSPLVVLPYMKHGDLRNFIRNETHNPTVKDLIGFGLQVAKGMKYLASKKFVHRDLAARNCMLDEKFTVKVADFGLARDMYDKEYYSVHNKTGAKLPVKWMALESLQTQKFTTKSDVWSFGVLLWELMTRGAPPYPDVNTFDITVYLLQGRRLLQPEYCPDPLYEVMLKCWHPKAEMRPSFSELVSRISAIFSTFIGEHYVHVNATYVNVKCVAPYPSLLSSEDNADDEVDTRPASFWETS
T3 sequence (P08581 25-932 limits assumed): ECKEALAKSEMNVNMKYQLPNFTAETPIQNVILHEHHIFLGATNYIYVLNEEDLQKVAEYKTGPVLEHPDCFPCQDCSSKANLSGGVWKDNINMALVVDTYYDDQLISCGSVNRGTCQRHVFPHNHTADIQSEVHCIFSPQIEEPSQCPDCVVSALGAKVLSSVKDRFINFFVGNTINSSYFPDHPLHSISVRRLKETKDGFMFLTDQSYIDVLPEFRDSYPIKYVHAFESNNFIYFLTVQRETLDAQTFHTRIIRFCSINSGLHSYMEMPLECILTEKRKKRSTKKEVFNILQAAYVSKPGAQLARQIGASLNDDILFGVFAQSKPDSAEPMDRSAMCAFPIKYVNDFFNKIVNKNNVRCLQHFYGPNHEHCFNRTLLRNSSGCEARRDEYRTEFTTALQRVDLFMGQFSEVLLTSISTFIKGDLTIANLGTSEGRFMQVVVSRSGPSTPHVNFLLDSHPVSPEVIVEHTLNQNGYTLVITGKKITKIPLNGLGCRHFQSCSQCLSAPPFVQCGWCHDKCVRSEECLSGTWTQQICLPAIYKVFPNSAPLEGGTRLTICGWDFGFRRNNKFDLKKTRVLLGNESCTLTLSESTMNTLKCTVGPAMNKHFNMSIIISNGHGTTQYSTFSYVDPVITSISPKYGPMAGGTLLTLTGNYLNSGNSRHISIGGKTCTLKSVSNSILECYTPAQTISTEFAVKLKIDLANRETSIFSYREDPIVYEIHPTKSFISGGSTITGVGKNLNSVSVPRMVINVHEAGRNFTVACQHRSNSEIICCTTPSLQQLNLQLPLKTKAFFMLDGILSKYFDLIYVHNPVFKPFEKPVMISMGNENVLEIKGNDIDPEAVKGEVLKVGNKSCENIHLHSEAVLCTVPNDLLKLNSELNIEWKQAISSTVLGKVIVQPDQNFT
T4 sequence (A0M8R7 25-932 S170N/I621T limits assumed): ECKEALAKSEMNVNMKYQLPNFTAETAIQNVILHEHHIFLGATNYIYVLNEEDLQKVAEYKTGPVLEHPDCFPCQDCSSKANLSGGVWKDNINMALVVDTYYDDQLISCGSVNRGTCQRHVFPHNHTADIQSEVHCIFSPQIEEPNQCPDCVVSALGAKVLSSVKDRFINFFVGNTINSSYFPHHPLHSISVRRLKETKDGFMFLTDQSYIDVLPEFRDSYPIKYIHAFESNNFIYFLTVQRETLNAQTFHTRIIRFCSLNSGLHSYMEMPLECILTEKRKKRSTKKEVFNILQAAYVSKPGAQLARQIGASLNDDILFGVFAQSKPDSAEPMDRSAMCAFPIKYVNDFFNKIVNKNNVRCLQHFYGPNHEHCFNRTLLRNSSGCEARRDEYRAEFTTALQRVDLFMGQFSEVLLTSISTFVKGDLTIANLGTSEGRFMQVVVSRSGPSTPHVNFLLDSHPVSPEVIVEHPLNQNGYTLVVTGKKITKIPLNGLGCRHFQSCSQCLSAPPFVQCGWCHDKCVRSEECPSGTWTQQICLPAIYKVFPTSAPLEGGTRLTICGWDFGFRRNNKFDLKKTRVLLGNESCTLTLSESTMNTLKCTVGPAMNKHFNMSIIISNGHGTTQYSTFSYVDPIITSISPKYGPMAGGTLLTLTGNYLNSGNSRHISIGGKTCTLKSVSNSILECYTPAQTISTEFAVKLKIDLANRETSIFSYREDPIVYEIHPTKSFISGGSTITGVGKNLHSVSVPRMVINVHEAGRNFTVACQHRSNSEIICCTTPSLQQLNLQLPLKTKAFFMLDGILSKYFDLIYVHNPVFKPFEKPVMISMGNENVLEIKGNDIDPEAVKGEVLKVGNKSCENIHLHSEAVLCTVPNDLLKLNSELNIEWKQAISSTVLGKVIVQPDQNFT

B1: mAb3b (antibody, human IgG1, kappa, V domains shown)
VH: QVQLVQSGAEVKKPGASVKVSCKASGYTFTDYYLNWVRQACGQGLEWMGLIFPGNDKTEYSEKFKGRVTLTTDTSISTAYMELSSLTSDDTALYYCSGGDYGGFVYWGQGTLVTVSS
VL: DIQMTQSPSSLSASVGDRVTISCGASENIYGALNWYQQQPGKAPKVLIFGATNLADGVPSRFSGSGSGTDFTLTISSLQPEDFATYYCQNVLSSPLTFGQGTKLEIKR
notes: Humanized IgG1 kappa, HC-41C, from wt/41C-chi-mAb3; also called humanized HC-41C antibody mAb3b
[1]
  Fold shift (HGF): 2 fold
[2]
  EC50: 0.04 µg/mL
[3]
  EC50: 0.02 µg/mL
[4]
  EC50 (read off the curve): ~0.06 µg/mL
[5]
  Fold shift (HGF): 3.5 fold
[6]
  EC50: 0.03 µg/mL
[7]
  Fold shift (HGF): 1.8 fold
[8]
  EC50: 0.07 µg/mL
[9]
  EC50: 0.06 µg/mL
[10]
  EC50: 0.06 µg/mL
[11]
  EC50: 0.02 µg/mL
[12]
  Kd: < 0.01 nM
[13]
  Kd: < 0.01 nM

B2: mAb3b: HC-41C humanized anti-c-Met antibody, VH SEQ ID NO:16, VL SEQ ID NO:20 (antibody, V domains shown)
VH: QVQLVQSGAEVKKPGASVKVSCKASGYTFTDYYLNWVRQACGQGLEWMGLIFPGNDKTEYSEKFKGRVTLTTDTSISTAYMELSSLTSDDTALYYCSGGDYGGFVYWGQGTLVTVSS
VL: DIQMTQSPSSLSASVGDRVTISCGASENIYGALNWYQQQPGKAPKVLIFGATNLADGVPSRFSGSGSGTDFTLTISSLQPEDFATYYCQNVLSSPLTFGQGTKLEIK
modifications: humanized HCVR; humanized LCVR
[14]; 10 μg/mL, each of MKN45, NCI-H441, PC-3
  Internalization: Efficient internalization
[14]; each of the cell lines
  time of maximum internalization: 24 h
